In PMC10123104:

Substrate: Nc1nc2c(ncn2[C@@H]2O[C@H](COP(=O)(O)OP(=O)(O)OP(=O)(O)O)[C@@H](O)[C@H]2O)c(=O)[nH]1
Assay: purified protein, by the assay type
Type: biochemical
Experimental: Nucleotides were detected at 254 nm. […] All measurements were performed in triplicate.

B1: ObgE (Escherichia coli K-12) (protein)
chain: MKFVDEASILVVAGDGGNGCVSFRREKYIPKGGPDGGDGGDGGDVWMEADENLNTLIDYRFEKSFRAERGQNGASRDCTGKRGKDVTIKVPVGTRVIDQGTGETMGDMTKHGQRLLVAKGGWHGLGNTRFKSSVNRTPRQKTNGTPGDKRELLLELMLLADVGMLGMPNAGKSTFIRAVSAAKPKVADYPFTTLVPSLGVVRMDNEKSFVVADIPGLIEGAAEGAGLGIRFLKHLERCRVLLHLIDIDPIDGTDPVENARIIISELEKYSQDLATKPRWLVFNKIDLLDKVEAEEKAKAIAEALGWEDKYYLISAASGLGVKDLCWDVMTFIIENPVVQAEEAKQPEKVEFMWDDYHRQQLEEIAEEDDEDWDDDWDEDDEEGVEFIYKR
notes: full length, N-terminally His6-tagged (pET28a), nucleotide-free after alkaline phosphatase treatment
- Km: 4 µM
